Experimental data: PMC6954417, “DSS1 interacts with and stimulates RAD52 to promote the repair of DSBs”

Assays:
[1] = biological target: RAD52 (untagged, pET11a);DSS1 (Homo sapiens;Homo sapiens, UniProt P43351;P60896 1-418;1-70, |); experiment: stopped-flow fluorescence; 1:1 complex; sign change at 0.1-0.25 uM; ssDNA EMSA: 30 mM Tris-acetate pH 7.5, 1 mM DTT, RT, 0.1% glutaraldehyde; FRET: same buffer + 0.1 mg/ml BSA, 25 C; dsDNA EMSA: 30 mM KPi pH 7.4, 1 mM DTT, 0.01; conditions: protein: recombinant;recombinant; tags: none;GST removed by thrombin; label: Cy3; single strand
RAD52 (untagged, pET11a);DSS1, sequence (P60896 whole entry, one chain of several): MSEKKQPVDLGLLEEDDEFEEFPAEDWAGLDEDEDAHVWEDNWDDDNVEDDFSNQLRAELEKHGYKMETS

RAD52 (untagged, pET11a) = biological target: T1, RAD52 (untagged, pET11a) (Homo sapiens, UniProt P43351 1-418); experiment: stopped-flow fluorescence; 0.05-2.0 uM RAD52; smaller amplitude, lower affinity than with DSS1; sign change at ~0.5 uM; ssDNA EMSA: 30 mM Tris-acetate pH 7.5, 1 mM DTT, RT, 0.1% glutaraldehyde; FRET: same buffer + 0.1 mg/ml BSA, 25 C; dsDNA EMSA: 30 mM KPi pH 7.4, 1 mM DTT, 0.01; conditions: protein: recombinant; tags: none; label: Cy3; single strand
T1 sequence: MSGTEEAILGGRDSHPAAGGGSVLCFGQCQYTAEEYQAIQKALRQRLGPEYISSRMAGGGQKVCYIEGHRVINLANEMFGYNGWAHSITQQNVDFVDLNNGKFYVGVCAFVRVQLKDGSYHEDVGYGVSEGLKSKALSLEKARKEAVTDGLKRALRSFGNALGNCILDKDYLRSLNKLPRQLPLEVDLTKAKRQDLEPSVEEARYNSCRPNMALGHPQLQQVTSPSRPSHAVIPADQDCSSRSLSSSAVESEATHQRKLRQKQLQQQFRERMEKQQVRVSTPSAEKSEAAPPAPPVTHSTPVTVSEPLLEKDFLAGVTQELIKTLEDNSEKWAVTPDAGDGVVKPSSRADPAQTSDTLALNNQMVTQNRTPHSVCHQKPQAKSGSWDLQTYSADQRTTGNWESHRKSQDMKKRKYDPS

**Q.** Does TTTTTTTTTTTTTTTTTTTTTTTTTTTTTTTTT (ssDNA) [Cy3-dT33 (pR1255)] bind [1]?
**A.** Result: binds

**Q.** Does TTTTTTTTTTTTTTTTTTTTTTTTTTTTTTTTT (ssDNA) [Cy3-dT33 (pR1255)] bind (RAD52 (untagged, pET11a))?
**A.** Result: binds
